Where two headings read alike, the source gives them in different places.
T1: ActRIIB-Fc homodimer (UniProt Q13705 19-137)
T1 construct: extracellular domain; also called ActRIIB homodimer
T1 sequence (looked up): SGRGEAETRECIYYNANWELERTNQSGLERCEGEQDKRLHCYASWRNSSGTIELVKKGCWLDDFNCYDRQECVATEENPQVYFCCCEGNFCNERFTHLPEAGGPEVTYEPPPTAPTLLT

T2: BMP15 (UniProt O95972 268-392)
T2 construct: also called GDF9b
T2 sequence (looked up): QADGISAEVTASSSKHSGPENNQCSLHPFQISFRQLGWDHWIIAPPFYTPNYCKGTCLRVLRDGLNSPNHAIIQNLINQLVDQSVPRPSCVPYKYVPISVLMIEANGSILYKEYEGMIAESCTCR

T3: BMP7 (UniProt P18075 293-431)
T3 sequence (looked up): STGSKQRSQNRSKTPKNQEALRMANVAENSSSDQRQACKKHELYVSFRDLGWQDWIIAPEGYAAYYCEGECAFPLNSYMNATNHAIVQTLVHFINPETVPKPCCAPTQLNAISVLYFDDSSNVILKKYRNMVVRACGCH

T4: BMP5 (UniProt P22003 317-454, limits assumed)
T4 sequence (looked up): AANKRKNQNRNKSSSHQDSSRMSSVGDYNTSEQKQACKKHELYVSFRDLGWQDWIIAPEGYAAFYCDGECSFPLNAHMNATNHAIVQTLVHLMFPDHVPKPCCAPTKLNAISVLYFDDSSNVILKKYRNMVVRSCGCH

T5: BMP6 (UniProt P22004 382-513, limits assumed)
T5 sequence (looked up): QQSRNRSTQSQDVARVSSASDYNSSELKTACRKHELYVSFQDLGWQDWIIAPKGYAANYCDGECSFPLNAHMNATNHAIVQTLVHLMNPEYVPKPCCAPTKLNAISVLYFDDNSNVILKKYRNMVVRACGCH

T6: TGFβ2 (human, UniProt P61812 303-414)
T6 sequence (looked up): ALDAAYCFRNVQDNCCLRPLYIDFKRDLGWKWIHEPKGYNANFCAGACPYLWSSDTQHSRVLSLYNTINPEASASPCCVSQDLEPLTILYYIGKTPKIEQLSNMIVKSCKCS

T7: GDF11 (UniProt O95390 299-407)
T7 construct: also called BMP11
T7 sequence (looked up): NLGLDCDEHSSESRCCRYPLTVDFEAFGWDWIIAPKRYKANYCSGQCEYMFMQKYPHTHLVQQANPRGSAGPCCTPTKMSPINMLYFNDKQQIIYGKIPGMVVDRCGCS

T8: GDF8 (UniProt O14793 267-375)
T8 construct: also called myostatin
T8 sequence (looked up): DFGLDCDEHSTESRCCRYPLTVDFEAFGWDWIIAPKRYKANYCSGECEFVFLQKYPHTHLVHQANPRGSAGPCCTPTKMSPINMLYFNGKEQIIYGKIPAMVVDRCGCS

T9: GDF3 (UniProt Q9NR23 251-364)
T9 sequence (looked up): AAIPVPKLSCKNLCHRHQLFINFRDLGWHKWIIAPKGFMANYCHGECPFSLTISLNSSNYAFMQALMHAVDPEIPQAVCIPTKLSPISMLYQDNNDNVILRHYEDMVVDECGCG

T10: activin B (UniProt P09529 293-407)
T10 sequence (looked up): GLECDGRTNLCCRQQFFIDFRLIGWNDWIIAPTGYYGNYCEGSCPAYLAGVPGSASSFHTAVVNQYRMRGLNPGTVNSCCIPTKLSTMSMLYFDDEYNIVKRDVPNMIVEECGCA

T11: BMP10 (UniProt O95393 317-424)
T11 sequence (looked up): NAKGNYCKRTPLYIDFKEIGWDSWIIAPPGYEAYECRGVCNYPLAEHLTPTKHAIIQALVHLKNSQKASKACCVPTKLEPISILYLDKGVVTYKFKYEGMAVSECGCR

B1: BMP9 (ligand, UniProt Q9UK05 320-429, looked up)
chain: SAGAGSHCQKTSLRVNFEDIGWDSWIIAPKEYEAYECKGGCFFPLADDVTPTKHAIVQTLVHLKFPTKVGKACCVPTKLSPISVLYKDDMGVPTLKYHYEGMSVAECGCR
notes: also called GDF2
B2: BMPRII-Fc homodimer (Fc fusion, UniProt Q13873 27-150, looked up, not shown: a dimerising Fc or GST)
chain: SQNQERLCAFKDPYQQDLGIGESRISHENGTILCSKGSTCYGLWEKSKGDINLVKQGCWSHIGDPQECHYEECVVTTTPPSIQNGTYRFCCCSTDLCNVNFTENFPPPDTTPLSPPHSFNRDET
notes: extracellular domain
B3: activin A (ligand, UniProt P08476 311-426, looked up)
chain: GLECDGKVNICCKKQFFVSFKDIGWNDWIIAPSGYHANYCEGECPSHIAGTSGSSLSFHSTVINHYRMRGHSPFANLKSCCVPTKLRPMSMLYYDDGQNIIKKDIQNMIVEECGCS
B4: TGFβRIISHORT-Fc homodimer (Fc fusion)
chain: TIPPHVQKSVNNDMIVTDNNGAVKFPQLCKFCDVRFSTCDNQKSCMSNCSITSICEKPQEVCVAVWRKNDENITLETVCHDPKLPYHDFILEDAASPKCIMKEKKKPGETFFMCSCSSDECNDNIIFSEEYNTSNPD
B5: ALK7-Fc homodimer (Fc fusion, UniProt Q8NER5 22-113, looked up, not shown: a dimerising Fc or GST)
chain: LSPGLKCVCLLCDSSNFTCQTEGACWASVMLTNGKEQVIKSCVSLPELNAQVFCHSSNNVTKTECCFTDFCNNITLHLPTASPNAPKLGPME
notes: extracellular domain

What was measured:
[1] = molecular target: B2; test: Biacore SPR
Description: (§1) Ligands were injected and allowed to flow over the captured receptor protein.

[2] = molecular target: T1, ActRIIB-Fc homodimer; test: Biacore SPR
Description: as §1

[3] = molecular target: T12, ActRIIA-Fc homodimer (UniProt P27037 20-135); test: Biacore SPR; kinetics indeterminate (transient)
T12 construct: extracellular domain
T12 sequence (P27037 20-135): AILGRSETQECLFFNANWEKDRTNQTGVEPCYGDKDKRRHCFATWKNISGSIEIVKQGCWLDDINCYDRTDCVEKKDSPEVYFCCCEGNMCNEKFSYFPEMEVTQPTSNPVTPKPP
Description: as §1

[4] = molecular target: T1, ActRIIB-Fc homodimer; test: Biacore SPR; remark: listed apart in the source
Description: as §1

[5] = molecular target: B2; test: Biacore SPR; remark: listed apart in the source
Description: as §1

[6] = molecular target: T1, ActRIIB-Fc homodimer; test: Biacore SPR; remark: listed apart in the source
Description: as §1

[7] = molecular target: T13, ALK3-Fc homodimer (UniProt P36894 24-152); test: Biacore SPR
T13 construct: extracellular domain
T13 sequence (P36894 24-152): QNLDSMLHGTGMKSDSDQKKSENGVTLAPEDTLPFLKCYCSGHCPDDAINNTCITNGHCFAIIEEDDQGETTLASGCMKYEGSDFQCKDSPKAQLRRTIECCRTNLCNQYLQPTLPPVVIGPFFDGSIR
Description: as §1

[8] = molecular target: T1, ActRIIB-Fc homodimer; test: Biacore SPR; remark: listed apart in the source
Description: as §1

[9] = molecular target: B2; test: Biacore SPR; remark: listed apart in the source
Description: (§2) A Biacore™-based binding assay was used to compare ligand binding selectivity of the BMPRII-Fc:ALK2-Fc heterodimeric complex described above with that of BMPRII-Fc and ALK2-Fc homodimeric complexes. […] Ligands were injected and allowed to flow over the captured receptor protein.

[10] = molecular target: B2; test: Biacore SPR; remark: listed apart in the source
Description: as §1

[11] = molecular target: T1, ActRIIB-Fc homodimer; test: Biacore SPR; remark: listed apart in the source
Description: as §1

[12] = molecular target: T2, BMP15; test: Biacore SPR
Description: as §1

[13] = molecular target: T2, BMP15; test: Biacore SPR; remark: listed apart in the source
Description: as §1

[14] = molecular target: T3, BMP7; test: Biacore SPR; kinetics indeterminate (transient)
Description: as §2

[15] = molecular target: T4, BMP5; test: Biacore SPR
Description: as §2

[16] = molecular target: T2, BMP15; test: Biacore SPR; remark: listed apart in the source
Description: as §2

[17] = molecular target: T5, BMP6; test: Biacore SPR; kinetics indeterminate (transient)
[18] = molecular target: T3, BMP7; test: Biacore SPR; kinetics indeterminate (transient); remark: listed apart in the source
[19] = molecular target: T2, BMP15; test: Biacore SPR; remark: listed apart in the source
Description: as §1

[20] = molecular target: B2; test: Biacore SPR; kinetics indeterminate (transient)
Description: as §1

[21] = molecular target: T14, TGFβ1 (human, UniProt P01137 279-390); test: Biacore SPR
T14 construct: Human (PeproTech) is stated for the A549 reporter assay; also called TGF-beta1
T14 sequence (P01137 279-390 limits assumed): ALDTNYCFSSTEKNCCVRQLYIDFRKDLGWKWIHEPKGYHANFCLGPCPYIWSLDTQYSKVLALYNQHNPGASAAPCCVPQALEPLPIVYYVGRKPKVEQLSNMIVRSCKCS
Description: (§3) A Biacore™-based binding assay was used to compare ligand binding selectivity of the TGFβRIISHORT-Fc:ALK1-Fc heterodimeric complex described above with that of TGFβRIISHORT-Fc and ALK1-Fc homodimeric complexes. […] Ligands were injected and allowed to flow over the captured receptor protein.

[22] = molecular target: T6, TGFβ2; test: cell-based or functional assay
[23] = molecular target: T14, TGFβ1; test: cell-based or functional assay
[24] = molecular target: T6, TGFβ2; test: Biacore SPR; kinetics indeterminate (transient)
Description: as §3

[25] = molecular target: T6, TGFβ2; test: Biacore SPR
Description: (§4) The heteromeric or homomeric protein complexes were independently captured onto the system using an anti-Fc antibody. Ligands were injected and allowed to flow over the captured receptor protein.

[26] = molecular target: T14, TGFβ1; test: Biacore SPR; remark: listed apart in the source
Description: as §4

[27] = molecular target: T7, GDF11; test: Biacore SPR
Description: as §1

[28] = molecular target: T5, BMP6; test: Biacore SPR
Description: as §1

[29] = molecular target: B3; test: Biacore SPR
Description: as §1

[30] = molecular target: T8, GDF8; test: Biacore SPR
Description: as §1

[31] = molecular target: T4, BMP5; test: Biacore SPR; remark: listed apart in the source
Description: as §1

[32] = molecular target: B1; test: Biacore SPR
Description: as §1

[33] = molecular target: T9, GDF3; test: Biacore SPR
Description: as §1

[34] = molecular target: T10, activin B; test: Biacore SPR
Description: as §1

[35] = molecular target: T11, BMP10; test: Biacore SPR
Description: as §1

Binder: B1
Kd [1]: 2.1 nM | koff [1]: 0.026 s⁻¹ | kon [1]: 1.2e+07 M⁻¹ s⁻¹ | Kd [2]: 0.01 nM | koff [2]: 0.0012 s⁻¹ | kon [2]: 1.2e+08 M⁻¹ s⁻¹ | Kd [3]: > 10 nM | Kd [4]: 0.034 nM | koff [4]: 0.0013 s⁻¹ | kon [4]: 3.9e+07 M⁻¹ s⁻¹ | Kd [5]: 2.1 nM | koff [5]: 0.026 s⁻¹ | kon [5]: 1.2e+07 M⁻¹ s⁻¹ | Kd [6]: 0.034 nM | koff [6]: 0.0013 s⁻¹ | kon [6]: 3.9e+07 M⁻¹ s⁻¹ | binding result [7]: no binding | Kd [8]: 0.034 nM | koff [8]: 0.0013 s⁻¹ | kon [8]: 3.9e+07 M⁻¹ s⁻¹ | Kd [9]: 1.6 nM | koff [9]: 0.073 s⁻¹ | kon [9]: 4.5e+07 M⁻¹ s⁻¹ | Kd [10]: 2.1 nM | koff [10]: 0.026 s⁻¹ | kon [10]: 1.2e+07 M⁻¹ s⁻¹ | Kd [11]: 0.077 nM | koff [11]: 0.0011 s⁻¹ | kon [11]: 1.4e+07 M⁻¹ s⁻¹

Binder: B2
Kd [12]: 0.29 nM | koff [12]: 0.0028 s⁻¹ | kon [12]: 9.9e+06 M⁻¹ s⁻¹ | Kd [13]: 0.29 nM | koff [13]: 0.0028 s⁻¹ | kon [13]: 9.9e+06 M⁻¹ s⁻¹ | Kd [14]: > 93 nM | Kd [15]: 9.9 nM | koff [15]: 0.019 s⁻¹ | kon [15]: 1.9e+06 M⁻¹ s⁻¹ | Kd [16]: 0.72 nM | koff [16]: 0.0042 s⁻¹ | kon [16]: 5.8e+06 M⁻¹ s⁻¹ | Kd [17]: > 8.9 nM | Kd [18]: > 38 nM | Kd [19]: 0.29 nM | koff [19]: 0.0028 s⁻¹ | kon [19]: 9.9e+06 M⁻¹ s⁻¹

Binder: B3
Kd [2]: 0.011 nM | koff [2]: 0.00014 s⁻¹ | kon [2]: 1.3e+07 M⁻¹ s⁻¹ | Kd [20]: > 43 nM | Kd [4]: 0.019 nM | koff [4]: 0.00023 s⁻¹ | kon [4]: 1.2e+07 M⁻¹ s⁻¹ | Kd [6]: 0.015 nM | koff [6]: 0.00017 s⁻¹ | kon [6]: 1.2e+07 M⁻¹ s⁻¹ | binding result [7]: no binding | Kd [8]: 0.011 nM | koff [8]: 0.00014 s⁻¹ | kon [8]: 1.3e+07 M⁻¹ s⁻¹ | Kd [11]: 0.019 nM | koff [11]: 0.00023 s⁻¹ | kon [11]: 1.2e+07 M⁻¹ s⁻¹

Binder: B4
Kd [21]: 0.025 nM | IC50 (pM), CAGA12-luciferase reporter gene assay in A549 cells, TGFβ2 at 480 pg/mL [22]: > 10000 pM | IC50 (pM), CAGA12-luciferase reporter gene assay in A549 cells, TGFβ1 at 640 pg/mL [23]: 90 pM | Kd [24]: > 44 nM | Kd [25]: 11 nM | Kd [26]: 0.02 nM

Binder: B5
binding result [27]: no binding | binding result [28]: no binding | binding result [29]: no binding | binding result [30]: no binding | binding result [31]: no binding | binding result [32]: no binding | binding result [33]: no binding | binding result [34]: no binding | binding result [35]: no binding
